Assay [1] deals with T1, human PCSK9 (self-cleaved, mature, secreted PCSK9 comprising amino acids 31 to 692 of SEQ ID NO: 2) (human, UniProt Q8NBP7 31-692, biotinylated in the ELISAs).
T1 construct: Limits 31-692 are stated for the immunogen; the assays only say human PCSK9; also called huPCSK9; rhu PCSK9
The assay is described as follows: SPR pH 7.4.

Assay [2] deals with T1, human PCSK9 (self-cleaved, mature, …). The assay is described as follows: SPR pH 7.4. The source holds these as a separate data set.

Like-named read-outs stand apart in the source and are kept apart here.

The term Kd denotes the constant that tells how readily two partners part at equilibrium. Read a high Kd as a looser complex. As usually defined, the koff is a measure of how fast the partners let go of each other. Read a high koff as fast dissociation. Broadly, the kon is the rate constant with which the complex forms. Higher therefore signals fast association.

B1: 8A3 variant HC I107M / LC N33Y, Y35H, S57L, S61H (antibody, V domains shown)
VH: not shown
VL: DIVMTQSPLSLPVTPGEPASISCRSSQSLLHSYGHNYLDWYLQKPGQSPQLLIYLGLNRAHGVPDRFSGSGSGTDFTLKISRVEAEDVGVYYCMQALQTPLTFGGGTKVEIKR
For B1, in assay [1], the Kd amounted to 0.572 nM, the koff came to 0.000326 s⁻¹ and the kon was found to be 570000 M⁻¹ s⁻¹. In assay [2], this molecule displayed a Kd of 0.572 nM, a koff of 0.000326 s⁻¹ and a kon of 570000 M⁻¹ s⁻¹.

B2: 8A3 variant HC M103S/I107M / LC N33Y, Y35H, S57L, S61H (antibody, V domains shown)
VH: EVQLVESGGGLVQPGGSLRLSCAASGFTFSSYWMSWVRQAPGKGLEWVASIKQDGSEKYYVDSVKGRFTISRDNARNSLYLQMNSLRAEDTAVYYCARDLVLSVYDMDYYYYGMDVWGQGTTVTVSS
VL: DIVMTQSPLSLPVTPGEPASISCRSSQSLLHSYGHNYLDWYLQKPGQSPQLLIYLGLNRAHGVPDRFSGSGSGTDFTLKISRVEAEDVGVYYCMQALQTPLTFGGGTKVEIKR
Turning to B2, in assay [1], the affinity, expressed as Kd, was 1.28 nM; the off-rate (koff) came to 0.000758 s⁻¹; the kon worked out at 594000 M⁻¹ s⁻¹. In assay [2], this molecule registered a Kd of 1.28 nM, a koff of 0.000758 s⁻¹ and a kon of 594000 M⁻¹ s⁻¹.

B3: SS-15500 (antibody, V domains shown)
VH: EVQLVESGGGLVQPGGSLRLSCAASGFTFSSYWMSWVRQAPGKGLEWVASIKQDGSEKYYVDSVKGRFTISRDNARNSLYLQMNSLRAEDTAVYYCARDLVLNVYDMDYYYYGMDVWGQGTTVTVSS
VL: DIVMTQSPLSLPVTPGEPASISCRSSQSLLHSYGHNYLDWYLQKPGQSPQLLIYLGLNRAHGVPDRFSGSGSGTDFTLKISRVEAEDVGVYYCMQALQTPLTFGGGTKVEIKR
In assay [1], B3 showed a Kd of 0.459 nM, a koff of 0.000304 s⁻¹ and a kon of 663000 M⁻¹ s⁻¹. In assay [2], this molecule gave a Kd of 0.459 nM, a koff of 0.000304 s⁻¹ and a kon of 663000 M⁻¹ s⁻¹.

B4: SS-15496 (antibody, V domains shown)
VH: not shown
VL: DIVMTQSPLSLPVTPGEPASISCRSSQSLLHSFGHNYLDWYLQKPGQSPQLLIYLGLNRAHGVPDRFSGSGSGTDFTLKISRVEAEDVGVYYCMQALQTPLTFGGGTKVEIKR
notes: HC I107M, LC N33F, Y35H, S57L, S61H
In assay [1], B4 gave an equilibrium dissociation constant (Kd) of 0.292 nM, a koff of 0.000194 s⁻¹ and a kon of 665000 M⁻¹ s⁻¹. In addition, in assay [2], the Kd amounted to 0.292 nM, the koff worked out at 0.000194 s⁻¹ and the kon turned out to be 665000 M⁻¹ s⁻¹.

B5: 8A3 variant HC M103N/I107M / LC N33Y, Y35H, S57L, S61H (antibody, V domains shown)
VH: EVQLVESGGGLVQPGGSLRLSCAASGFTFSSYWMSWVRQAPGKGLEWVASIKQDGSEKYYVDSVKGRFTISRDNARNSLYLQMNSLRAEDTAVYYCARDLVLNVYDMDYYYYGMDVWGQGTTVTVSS
VL: DIVMTQSPLSLPVTPGEPASISCRSSQSLLHSYGHNYLDWYLQKPGQSPQLLIYLGLNRAHGVPDRFSGSGSGTDFTLKISRVEAEDVGVYYCMQALQTPLTFGGGTKVEIKR
In assay [1], B5 displayed a Kd of 0.819 nM, a koff of 0.000425 s⁻¹ and a kon of 519000 M⁻¹ s⁻¹. In assay [2], this molecule displayed a Kd of 0.819 nM, a koff of 0.000425 s⁻¹ and a kon of 519000 M⁻¹ s⁻¹.

B6: SS-15495 (antibody, V domains shown)
VH: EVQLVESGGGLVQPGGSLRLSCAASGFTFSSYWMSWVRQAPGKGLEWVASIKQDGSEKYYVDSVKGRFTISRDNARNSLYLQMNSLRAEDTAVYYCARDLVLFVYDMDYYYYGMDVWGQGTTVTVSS
VL: DIVMTQSPLSLPVTPGEPASISCRSSQSLLHSFGHNYLDWYLQKPGQSPQLLIYLGLNRAHGVPDRFSGSGSGTDFTLKISRVEAEDVGVYYCMQALQTPLTFGGGTKVEIKR
notes: HC M103F/I107M, LC N33F, Y35H, S57L, S61H
With B6, in assay [1], the Kd came out at 0.285 nM, the koff turned out to be 0.000152 s⁻¹ and the kon came to 534000 M⁻¹ s⁻¹. For the same molecule, in assay [2], binding was put at a Kd of 0.285 nM, the koff is 0.000152 s⁻¹ and the kon is 534000 M⁻¹ s⁻¹.

B7: 8A3 variant HC M103F/I107M / LC N33Y, Y35H, S57L, S61H (antibody, V domains shown)
VH: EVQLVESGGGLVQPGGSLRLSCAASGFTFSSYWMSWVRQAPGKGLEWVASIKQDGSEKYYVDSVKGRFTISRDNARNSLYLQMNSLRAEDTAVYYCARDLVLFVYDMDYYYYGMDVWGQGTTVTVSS
VL: DIVMTQSPLSLPVTPGEPASISCRSSQSLLHSYGHNYLDWYLQKPGQSPQLLIYLGLNRAHGVPDRFSGSGSGTDFTLKISRVEAEDVGVYYCMQALQTPLTFGGGTKVEIKR
In assay [1], B7 had a Kd of 0.528 nM, a koff of 0.000253 s⁻¹ and a kon of 480000 M⁻¹ s⁻¹. Moreover, in assay [2], the affinity, expressed as Kd, was 0.528 nM; the koff was 0.000253 s⁻¹; the kon stood at 480000 M⁻¹ s⁻¹.

B8: 8A3 variant HC WT / LC N33Y, Y35H, S57L, S61H (antibody, V domains shown)
VH: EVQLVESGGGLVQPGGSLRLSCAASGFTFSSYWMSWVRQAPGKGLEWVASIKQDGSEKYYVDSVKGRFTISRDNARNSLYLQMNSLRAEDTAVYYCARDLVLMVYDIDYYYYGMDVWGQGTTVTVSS
VL: DIVMTQSPLSLPVTPGEPASISCRSSQSLLHSYGHNYLDWYLQKPGQSPQLLIYLGLNRAHGVPDRFSGSGSGTDFTLKISRVEAEDVGVYYCMQALQTPLTFGGGTKVEIKR
In assay [1], B8 had a Kd of 2.81 nM, a koff of 0.00115 s⁻¹ and a kon of 410000 M⁻¹ s⁻¹. Further, in assay [2], the Kd is 2.81 nM, the koff was 0.00115 s⁻¹ and the kon was found to be 410000 M⁻¹ s⁻¹.

The record behind these values is patent US20160032014A1 (Amgen, published 2016).
